{
  "source": "patent US20110065123A1",
  "biological_target": "Rac1 (non-glucosylated) of mouse intestinal epithelial CT26 cells (mouse) (UniProt P63001)",
  "assay": "cell-based or functional assay",
  "data": [
    {"substance": "native TcdB (nTcdB) purified from C. difficile strain VPI 10463 (from UniProt P18177 2-2366) (enzyme)", "values": [
      {"measurement": "glucosylation of Rac1 in CT26 cells, 5 h (Western blot with anti-Rac1 clone 102): complete", "value": "0.4 to 2", "unit": "ng/mL"}
    ]},
    {"substance": "full-length recombinant Clostridium difficile toxin A (rTcdA), His-tagged, expressed in Bacillus megaterium (from UniProt P16154 1-2710) (enzyme)", "values": [
      {"measurement": "glucosylation of Rac1 in CT26 cells, 5 h (Western blot with anti-Rac1 clone 102): complete", "value": 40, "unit": "ng/mL"}
    ]},
    {"substance": "native TcdA (nTcdA) purified from culture supernatant of C. difficile strain VPI 10463 (from UniProt P16154 1-2710) (enzyme)", "values": [
      {"measurement": "glucosylation of Rac1 in CT26 cells, 5 h (Western blot with anti-Rac1 clone 102): complete", "value": 40, "unit": "ng/mL"}
    ]},
    {"substance": "full-length recombinant Clostridium difficile toxin B (rTcdB), His-tagged, expressed in Bacillus megaterium (from UniProt P18177 2-2366) (enzyme)", "values": [
      {"measurement": "glucosylation of Rac1 in CT26 cells, 5 h (Western blot with anti-Rac1 clone 102): complete", "value": "0.4 to 2", "unit": "ng/mL"}
    ]}
  ]
}
